{"source": "the DeepSol protein solubility set", "data": [{"assay": "soluble on expression in E. coli; label from the status in PepcDB or PDB records", "values": [{"sequence": "MSLMSVVKVGVNGFGTIGRRVALAITLQKDMKLVGVVKRTPDYAALYAASRGIPIYTPTAKEAEEFEKRGIKVGGTLRELLARVDVVVDATPEGQGAKNKPLYREAGVKQVYQGGEKPEVAEASFSTLCNYEESKGRGSLRVVSCNTTGLLRLICTLNREFGVESVRAVLVRRGADPKEVKKGPIDSIVLNPPTLPSHHAVDVRTVLPWLDIKTAAVAVPTTFMHMHHVTLKLAKPVEKREVLETLASAPRIMLVSSGDTGIKSTSQLVDAARLSRMGYDIPELVVFEESVAVDGREVMLFQAVHQESIVVPENIDAIRAVASSPLTLDETLKATDGSLGLRKTLW", "soluble on expression in E. coli": "soluble"}, {"sequence": "MSLNALKREDAANKKLGVLIYENVQPMDVIGPWEVFATWKTILDASIDMFLVAESSNEVCCANQISLKPHCEFNNSPQFDYLLVPGGAGRREQVNNPRLISFLKKQAQNTDYLLSVCTGAFLLHAAGLLTHHEATTYWRAMPELKSFEDVQLVEKRIVKSGKVWTTGGISSGIDLAFEFISTIAGNDVAGKIQLLFEYFPECKLYSQPAMVSELPSYYATKKDEAVLEMNLPDYIKEYFKKSEGHHHHHH", "soluble on expression in E. coli": "soluble"}, {"sequence": "MSLNCFISSYVRGNFYNRGRISAESLRASDDLIFLNVRPNKDGSLSFENPRIFENGKGVTSWEELIKSVRADVKGTKTKLRLGAASGEWKAMVADEAARVAFAKNIKKILEKNKLDGIDLDFEWAETEKEYEDYSLAILKMREVLGDKYVFSVSLHPVCYKISKEAIAAVDFISYQCYGPSPVRFPMEKYCSDIQMALAYGIPKEKLVAGVPFYGVTKDGSKKTEAYFSFVQDGLITGPAQNEVTYKGDVYVFDGQNNIRAKTRYAMDQQLKGMMSWDLATDMPLNDSRSLFKTMVEELGREGHHHHHH", "soluble on expression in E. coli": "soluble"}, {"sequence": "MSLNGSRRIPQPIRWAMVGGGSQSQIGYIHRCAALRDNTFVLVAGAFDIDPIRGSAFGEQLGVDSERCYADYLSMFEQEARRADGIQAVSIATPNGTHYSITKAALEAGLHVVCEKPLCFTVEQAENLRELSHKHNRIVGVTYGYAGHQLIEQAREMIAAGELGDVRMVHMQFAHGFHSAPVEAQSQATQWRVDPRQAGPSYVLGDVGTHPLYLSEVMLPDLKIKRLMCSRQSFVASRAPLEDNAYTLMEYEGGAMGMVWSSAVNAGSMHGQKIRVIGSRASLEWWDERPNQLSFEVQGQPAQILERGMGYLHPNALIDDRIGGGHPEGLFEAWANLYYRFALAMDATDRSDTQALSAVRYPGIDAGVEGVRWVERCVLSADNDSIWVAYEGHHHHHH", "soluble on expression in E. coli": "soluble"}, {"sequence": "MSLNIMDFNVKKLAADAGTFLSRAVQFTEEKLGQAEKTELDAHLENLLSKAECTKIWTEKIMKQTEVLLQPNPNARIEEFVYEKLDRKAPSRINNPELLGQYMIDAGTEFGPGTAYGNALIKCGETQKRIGTADRELIQTSALNFLTPLRNFIEGDYKTIAKERKLLQNKRLDLDAAKTRLKKAKAAETKSSSEQELRITQSEFDRQAEITRLLLEGISSTHAHHLRCLNDFVEAQMTYYAQCYQYMLDLQKQLGSFPSNYLSNNNQTSGTPVPYALSNAIGPSAQASTGSLVITCPSNLNDLKESSNNRKARVLYDYDAANSTELSLLADEVITVFSVVGMDSDWLMGERGNQKGKVPITYLELLNEGHHHHHH", "soluble on expression in E. coli": "soluble"}, {"sequence": "MSLNISTGLLIVESPTKAKTIAKMFSRPSVRIRNKVPVYETIIVDGNQIYVLDIVASKGHIVDLTLEDIGYYGIKVEDDGTIKPYYDLIKKCLDCNKIFSSASDKCPYCGSANLQSAQTTINLLRELALSVDKVFIASDPDTEGEKIAYDLASFLSPYNSNVYRVVYHEITKKAILEALRNPKKINTNLVMSQIVRRIEDRWIGFTLSNLLKTKFNGHNHGAGRVQTPVLGWIVNKTIKYKSAMGHVVYIDIAGYSIKKYFSEKRKVEEYINNLQVARIEKISEEKILLSPLPPFTTDTLLIEANMKYKLPANLVMKIAQDLFEAGLITYHRTDSTHISSVGIEIAKEYLQKQALIKEFVPRSWESSEEGAHEAIRPTRAIDVNELIQEIEENPYKYSIRFSKLHLLIYDLIFKRFIASQMSHAVGTKSRYLIKLGKDDNVDVELLSNAEGGFIKVYPVKVYNLPVGEIQPKVNITKGSSEQLLSYSDVISLMKSKGIGRPSTYAKTIENLMKHGYIVSSKRKSYLIATNRGISVYQFLSSKFYDLVSESTTSRLMTKLDDIALSKLNASTVLLEIFSEISTLVNPLKSEEGHHHHHH", "soluble on expression in E. coli": "soluble"}, {"sequence": "MSLNKKRPLKGRFLHITDIHPDPHYKTGSTFDSGCHRKPKKDGKSEGKKATENERGNEDLDDKEFDTLIKNEDLAGKWGTAVSDCDCPMSLVNITFDWLKEEWANEVDFVVWTGDNARHDIDRRIPRTPKEIFDSNRMIVDRMLDAFGRDMPIVPSIGNNDIYPHNVLAAGPSRITEEFLLIWKHFIPSEAAHVFERGAYFSVEVIPDRLAVISLNTLFWYDANTLVDGCRDHSNDPGALEMDWLEVQLNNFRQRGMQVWLTGHVPPHMNHYYDNCYLRYGDLALRYQDTIVGHLFGHMNVDHFFFIDVDELEATSELTSTSSNTTLSDLPLLHGPRLPRPGPGKYTAMGRSGARKLEEELRKDEGHHHHHH", "soluble on expression in E. coli": "soluble"}, {"sequence": "MSLNKVRLGIIGLGAQGGTYAGFINDNKIANLELGAICDIDPEKRTVAAEKYPNVPFYDNYIDMLESGDVDAIVTTVPHYLHTEIGKEALSRDIHALLEKPGDIYAEKVKEISDLAASKPNLTFGIFFNQRTNPLYQKVKSLIDNGEIGEIRRTNWIITTWWRPQAYYDQSSWRATWSGEGGGVLVNQAPHQIDLLQWLCGLPKKVYANVKYGYQRDLNVDDDVTTVLDYGNGATGVFITCTHDIIGTDRLEITGDKGKILVEDSKKITLKSLNQSETQMNQDMTWEEVAELFKGNGMGDIYKEETFEFESVWGQQHISVLENFTANILDGTPLIAPGSDGINEGHHHHHH", "soluble on expression in E. coli": "soluble"}, {"sequence": "MSLNLVSLRVITDDVARLVGFYERATGLRATWATEDFAELRTPSGTLAIGSTRTVPLFAPGSARPADNRSVIVEFLVDDVDAVHRNLTGFVDEFVREPTTMPWGNRALLFRDPDGNLVNFFTPVTEGHHHHHH", "soluble on expression in E. coli": "not soluble"}, {"sequence": "MSLNNDDSPALTLDEYKQAQAIVILGGGSYQTKELYAETASGAPQLERLRYAAFLQKETGLPILTTGYSLIGISEGDLMAKELNQFFNVPTQWIENKARNTEENASFTKNILIKDHIQKIILVTNQWHMKRAKYLFEKQGFDVLPAAAASYGSKGNLSAKSFIPDLGALNSNMVLLKEWIGYWKAHYVEEGHHHHHH", "soluble on expression in E. coli": "not soluble"}, {"sequence": "MSLNNIAPQSPVMRRLTLQDNPAIASVIRQVYAEYGLTADKGYTVADPNLDELYQVYSQPGHAYWVVEYNGEVVGGGGIAPLTGSEADICELQKMYFLPAIRGKGLAKKLALMAMEQAREMGFKRCYLETTAFLKEAIALYEHLGFEHIDYALGCTGHVDCEVRMLRELEGHHHHHH", "soluble on expression in E. coli": "not soluble"}, {"sequence": "MSLNNLEKASRLIDEENNYYARSARINYYDLVINHAHGATLIDVDGNEYIDLLASASAINVGHTNERVVKAISRQAQKLIHYTPAYFHHVPGIELSKRLAELAPGNSPKMVSFGNSGSDANDAIIKFSRAYTSRQYIVSYMGSYHGSNYGSQSLSGTSLNMTRKIGPMLPGVVHVPYPDLYRRYAGETEHDVAIRYFNAFKAPFESFLPADETACVLVEPIQGDGGIVKAPEEYMQLVYKFCHDNGILFAVDEVNQGLGRTGKMWGIQQYKDIEPDLMSVGKSLASGMPLSAVVGKKDIMQSLDAPAHIFTTSGNPVCAAASLATLNVIRDDHLVEKSAKDGEYAKQRFLEMQRHHPIIGDVRMWGLNGGIELVKDPKTKEAENDAATKVIYYAFAHGVVIITLAGNILRFQPPLVISHKQLDKALQVLDDAFTAVEQNKVEVPKDTGKIGWEGHHHHHH", "soluble on expression in E. coli": "not soluble"}, {"sequence": "MSLNQFTTDLVQALVQKENVTEIFRSHLENAVNTLLASELTAFLDYEKYDRIGFNTGNSRNGSYERTLHTEFGELHLVIPRDRNGDFKQQTVAPYKRSNDTLEAFVIHMFQKGVTTAEIAHLMERMYGHHYTPQTISNMTKVMSEQVEAFRDRTLCARYACVYLDATYIALKRDTVSKEAVYIAVGIREDGSKEVLGYTIAPNESAFVWKELLEDIKSRGVEEILLFISDGLKGISDSVFSIYPASSYQTCCVHLSRTIAHKVRVSDRAEICEDFKSVYRAESLEMGQQALHSFIEKWKSKYPKVTKPLLNNSYLFTFYSFPKSIWRSIYSTNLIESFNKQIKKYSKRKEQFPNEESLERFLVSQFDQYNQRFATRCHIGFDQARAELQMMFKTNEGHHHHHH", "soluble on expression in E. coli": "soluble"}, {"sequence": "MSLNQLLFVPLGGIGEIGMNLALYGYGPEHAREWIAVDVGISFAGADFPGVDLVFPDIRFIEELGDKLKGIVITHAHEDHYGALLDLWPKMKVPVYATAFTAAMLAAKREGEPGAPKIPVTQFSAGDRFKVGPFEIEAINVTHSIPEPVALAIRSPAGTVVHTGDWKIDPTPALGAPTDEKRLREIGDEGVLAMICDSTNALREGVSPSESEVSASLGEIIRGAKGRVAVTTFSSNVGRIRSIAAAARDAGRQVLLMGRSMRRVVDVSTELGYMDGIPPFLGEQDFGYIPPEKAVIILTGSQGETRAALARLSRDEHPTVALSQGDLVIFSSRAIPGNEKLIIDIKNALIERGVQILEDGEKLVHVSGHPRRSEMRQMYEWVRPTIAVPAHGEAAHLSAHAKLARELGVKQVVPARNGKMVQLSPGAASVIADVPVGRLFKDEGHHHHHH", "soluble on expression in E. coli": "soluble"}, {"sequence": "MSLNQPDLFSSTSGTVGGLAVQSILEGFKSHYARDQETELSLEEYLSLAKQDPMAYASPAERMLAAIGEPELIDTRNDPRLSRLFSNRLVRRYPAFKEFYGLEDVIDQIVAFFKHAAQGLEERKQILYLLGPVGGGKSSIAERLKVLMEAYPIYALKGSPVNESPLGLFHPDRFGDTLEQEYGIARRYLCGIMSPWAVKRLREFDGDISQFRVVRLNPSVLRQVAIAKTEPGDENNQDISSLVGKVDIRKLERYAQDDPDAYSYSGGLCLANQGLLEFVEMFKAPIKMLHPLLTATQEGNFKGTEGFSAIPFNGMILAHSNESEWQTFRNNKHNEAFLDRIYIVKVPYCLQVSEEVCIYEKLLRHSSLAQAPCAPGTLDMMAQFSVLTRLKEPENSSIYSKLRVYDGESLKDVDPKAKALQEYKDYAGTDEGMTGVSTRFAYKILSSVFNYDQTEVAANPVHLMYVLEQRIAREDFPEETRRRYLEFIKGYLAPRYAEFIGKEIQTAYLESYSEYGQNIFDRYVTFADCWIQDEEFRDPETGESFDRSALNDELEKIEKPAGIANPKDFRNEIVNFVLRARANNAGRNPNWTSYEKLREVIEKKMFSNTEDLLPVISFNAKASAEDRSKHQSFVDRMVDKGYTEKQVRLLCEWYLRVRKSSEGHHHHHH", "soluble on expression in E. coli": "soluble"}, {"sequence": "MSLNRAFRREQYARMVALSEPLIADYLGVRLPEPVSRIFVFDRREWLEANIVSFSQLFRPIEEMYEKNGGGRGALGVLMNDVSSKLLGVQIGGLLGYLAQRVLGQYDLSLLSAEATGGSLYFVEPNIARVQQQLGLSDEDFRLWITLHEMTHAFEFEAYPWVRTYFRELLEQNFALVSGQMLSSGNSLVDMLMRLLQGEGHHHHHH", "soluble on expression in E. coli": "not soluble"}, {"sequence": "MSLNRFFNRELSWLAFNTRVLNEAKDESLPLLERLKFLAIYDTNLDEFYMIRVAGLKQLYEHKIASKGIDGASPEEQLEKIKHYLAHEIEERELEFQKIQALLFKKGLCITPYNELNLEQKAKAKTYFKEQLYALVLPFKLDSSHTFPPLANLTFALFARIKDKETQIISYALIKLPSFIFRFVELEKGLFVLAEEIVEAHLEELFLEHEILDCMAFRVTCDADIAITEDEAHDYADLMSKSLRKRNQGEIVRLQTQKGSQELLKTLLASLRSFQTHSYKKHKLTGMHIYKSAIMLNLGDLWELVNHSDFKALKSPNFTPKIHPHFNENDLFKSIEKQDLLLFHPYESFEPVIDLIEQAASDPATLSIKMTLYRVGKHSPIVKALIEAASKIQVSVLVELKARFDEESNLHWAKALERAGALVVYGVFKLKVHAKMLLITKKTDNQLRHFTHLSTGNYNPLSAKVYTDVSFFSAKNEIANDIIKLFHSLLTSSATNSALETLFMAPKQIKPKIIELIQNEMNHQQEGYIILKANALVDSEIIEWLYQASQKGVKIDLIIRGICCLKPQVKGLSENIRVYSIVGKYLEHARIYYFKHENIYFSSADLMPRNLERRVELLIPATNPKIAHKLLHILEIQLKDTLKRYELNSKGRYIKVSNPNDPLNSQDYFEKQALKTFEGHHHHHH", "soluble on expression in E. coli": "soluble"}]}]}
